The target of test [1] is 6xHis-tagged full-length SNX27 (human, UniProt Q96L92 1-541). Nature of the test: pull-down.
For test [2], the target named is untagged SNX27 FERM domain (human, UniProt Q96L92 273-525). Description: ITC. In general terms: ITC needs no label: the signal is the heat of the interaction.
In test [3] the target is untagged full-length SNX27 (human, UniProt Q96L92 1-541). Nature of the test: ITC.

B1: GST-SNX1 (residues 1-90) (domain or fragment, human, UniProt Q13596 1-90, looked up)
chain: MASGGGGCSASERLPPPFPGLEPESEGAAGGSEPEAGDSDTEGEDIFTGAAVVSKHQSPKITTSLLPINNGSKENGIHEEQDQEPQDLFA
B1: the binding result in test [1] is given as “binds”.

B2: GST-SNX1 residues 40-60 (domain or fragment, human, UniProt Q13596 40-60, looked up)
chain: DTEGEDIFTGAAVVSKHQSPK
With B2, the binding result in test [1] is given as “binds”.

B3: GST-SNX1 residues 40-70 (domain or fragment, human, UniProt Q13596 40-70, looked up)
chain: DTEGEDIFTGAAVVSKHQSPKITTSLLPINN
For the molecule B3, the binding result in test [1] is “binds”.

B4: GST-SNX1 (residues 1-142) (domain or fragment, human, UniProt Q13596 1-142, looked up)
chain: MASGGGGCSASERLPPPFPGLEPESEGAAGGSEPEAGDSDTEGEDIFTGAAVVSKHQSPKITTSLLPINNGSKENGIHEEQDQEPQDLFADATVELSLDSTQNNQKKVLAKTLISLPPQEATNSSKPQPTYEELEEEEQEDQ
Regarding B4, the Kd was 12 µM in test [2] and 10 to 12 µM in test [3].

B5: SNX1 peptide with the second DxF motif (residues 80-90, DLF) (peptide)
peptide: EQDQEPQDLFA
B5: the binding result in test [2] and in test [3] was “binds” each time.

B6: GST-SNX1 (residues 40-100) (domain or fragment, human, UniProt Q13596 40-100, looked up)
chain: DTEGEDIFTGAAVVSKHQSPKITTSLLPINNGSKENGIHEEQDQEPQDLFADATVELSLDS
B6: the binding result in test [1] was “binds”.

B7: SNX1 peptide with the first DxF motif (residues 40-50, DIF) (peptide)
peptide: DTEGEDIFTGA
For the molecule B7, the “fold weaker than the SNX1 N-terminus” value in test [2] and in test [3] was around 2 fold throughout.

B8: GST-SNX1 residues 1-60 (domain or fragment, human, UniProt Q13596 1-60, looked up)
chain: MASGGGGCSASERLPPPFPGLEPESEGAAGGSEPEAGDSDTEGEDIFTGAAVVSKHQSPK
As to B8, in test [1], the binding result is on record as “binds”.

B9: GST-SNX1 residues 1-70 (domain or fragment, human, UniProt Q13596 1-70, looked up)
chain: MASGGGGCSASERLPPPFPGLEPESEGAAGGSEPEAGDSDTEGEDIFTGAAVVSKHQSPKITTSLLPINN
For B9, the binding result in test [1] is reported as “binds”.

B10: GST-SNX2_N-terminal (1-139) (domain or fragment, human, UniProt O60749 1-139, looked up)
chain: MAAEREPPPLGDGKPTDFEDLEDGEDLFTSTVSTLESSPSSPEPASLPAEDISANSNGPKPTEVVLDDDREDLFAEATEEVSLDSPEREPILSSEPSPAVTPVTPTTLIAPRIESKSMSAPVIFDRSREEIEEEANGDI
As for B10, the binding result in test [1] is “binds”.

B11: GST-SNX1 (residues 40-90) (domain or fragment, human, UniProt Q13596 40-90, looked up)
chain: DTEGEDIFTGAAVVSKHQSPKITTSLLPINNGSKENGIHEEQDQEPQDLFA
Turning to B11, the binding result in test [1] is on record as “binds”.

B12: GST-SNX1 residues 1-80 (domain or fragment, human, UniProt Q13596 1-80, looked up)
chain: MASGGGGCSASERLPPPFPGLEPESEGAAGGSEPEAGDSDTEGEDIFTGAAVVSKHQSPKITTSLLPINNGSKENGIHEE
With B12, the binding result in test [1] was “binds”.

B13: GST-SNX1 residues 40-80 (domain or fragment, human, UniProt Q13596 40-80, looked up)
chain: DTEGEDIFTGAAVVSKHQSPKITTSLLPINNGSKENGIHEE
As for B13, the binding result in test [1] was “binds”.

As a reminder, the Kd is the constant that tells how readily two partners part at equilibrium. Low values mean a tighter complex, high ones a looser complex.

Values taken from publication PMC8858909 (Advances in biological regulation, 2021).
